Here are results for one molecule from paper PMC8548084, “The role of DDK and Treslin–MTBP in coordinating replication licensing and pre-initiation complex formation” (Open Biology, 2021).

This assay deals with T1, MTBP (Mdm2 Binding Protein), Xenopus (Xenopus laevis (endogenous in egg …, UniProt Q6NRW0 1-860)).
T1 construct: MTBP of Xenopus laevis, endogenous in egg extract; 96 kDa as printed; Printed N-terminal 125 residues (antigen MTBP-2): [residues removed]
T1 sequence (looked up): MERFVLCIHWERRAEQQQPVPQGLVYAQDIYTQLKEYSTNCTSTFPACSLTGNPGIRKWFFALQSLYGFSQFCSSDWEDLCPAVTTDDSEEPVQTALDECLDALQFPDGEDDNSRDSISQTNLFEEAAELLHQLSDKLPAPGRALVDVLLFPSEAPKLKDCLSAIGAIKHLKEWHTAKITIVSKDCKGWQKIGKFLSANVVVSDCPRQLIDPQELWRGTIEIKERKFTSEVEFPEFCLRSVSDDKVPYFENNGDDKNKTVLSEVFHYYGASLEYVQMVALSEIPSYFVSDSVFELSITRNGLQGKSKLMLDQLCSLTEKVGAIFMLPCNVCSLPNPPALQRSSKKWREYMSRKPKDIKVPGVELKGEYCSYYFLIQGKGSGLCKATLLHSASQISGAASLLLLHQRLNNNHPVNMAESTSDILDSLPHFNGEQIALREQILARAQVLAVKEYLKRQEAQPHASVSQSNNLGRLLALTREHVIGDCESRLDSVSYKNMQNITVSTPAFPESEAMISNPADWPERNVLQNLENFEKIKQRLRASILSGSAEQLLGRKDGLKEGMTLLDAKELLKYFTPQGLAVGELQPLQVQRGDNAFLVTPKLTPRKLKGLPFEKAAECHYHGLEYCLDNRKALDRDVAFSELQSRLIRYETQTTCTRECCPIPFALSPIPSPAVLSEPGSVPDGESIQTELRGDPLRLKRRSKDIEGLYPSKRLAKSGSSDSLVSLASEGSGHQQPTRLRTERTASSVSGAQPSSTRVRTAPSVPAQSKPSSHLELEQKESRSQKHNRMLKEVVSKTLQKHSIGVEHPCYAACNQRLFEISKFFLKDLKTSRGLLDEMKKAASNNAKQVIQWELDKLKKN
The assay can be described thus: SEC + other: sucrose gradient centrifugation; 3% PEG-precipitated proteins of Xenopus egg extract in LFB1/50; Agilent BIO SEC-5 column at 4°C and 5-40% sucrose gradient; fractions immunoblotted for MTBP and Treslin; native mass by the Siegel and Monty equation. The following applies: partners not purified.

B1: Treslin/Ticrr, Xenopus (natural protein, UniProt D3IUT5 1-1985, looked up)
chain: MAPSHNVVLLVDTAESSDKSRLRRVSLRLLNFLACRAGLGQVRWSYRFLNSSGGRCRPPRRSDLRELGPRGWEEFEDELEACWERARNCRPSSTQSSRAQLLQTALMETLADFQWDRPDITSPTKPTLLRSRRGRIVAADEPLKDDSPDNFINPHSRNSIFLLSSCPHSGTELGQFAATSGDFSTQKVMDKLLPKSLQKIVSSKRVRVYWLDTSDWTQFGSSSDHSGYWTMVELMHQVEGRILPSESILGSSCQKAKTLPSFSVPPINIPFESVLNYLIFSEPDYQLWFPRRDGILFLTGKDGTKQLDCAVSLEPVSMIQKLSTSLMTIELKGTMQNCNLPLAGLRVETWLLHNSDCVQLQKLTKELMLKELHMIATVTLEDDVLPRTGILSPLSETAAVLNVICSERTLGLDNLHVQGSVHETDKETFSDLPDIVMSVLNHVYSSEDNTLAPDFPVPEWIKQELSQSSRWTSSVTARWYPLSGVSGASCNLMESFRLINAASSNCDEHLKFDQELTNYLSEFYQKKSVDDAGLGVHRENQKKSGLPRTPVRQKMKTLPRALQMLNAARLNVKAQKADSTLPVPNEKNSQMKRRSSGKQDNKPKQLKPTEFQSEDGLISYIKENYEEAVSLVDHSTMTWARDTLTTIKSYLKSIGSEQIETEAIDKVKLLFKTSKVIRQNYRNNQDKEVKLKECQLQVFLRLEMFVQCPVIQMDSDELELIIEEITDILRIVSLTEDPLFLTKFLEVDVLTQYIASVPKILADIYFSLGTQIPEVLVLVLPSDGDDSIMHEEKSVKSQPSTSRVPSVAPIGAETDQLEDLRTRSAKKRRSTALARHRSVAESSQSFRQIEVPKRQPNKENVQSNAVVVLEKLKLPLPAQPQKDAEAKVRRNLFIQETRSPSKRCSKMPRSQSVSAVESLKRKRSKSHDGSKDHHKLLTKKVSETPVHKQTANRLLLRQIKGRPSESNSNISIVEESPEKEIRDIDLRRSPRIKQLSLTRRNSSSFYASQPKSRNLERVNSATQLQQSRERPGSCLISEVKTPKRLLFGEVLGMISPPTTKRSRRILDMVNPVYKTPGKTPRKTPSKNIPNFEDQSGNMLVKSPCTPYTPRTPSRTPKRLKTPSKGSTERKKAAKNLGKLFSPSKPEEKSPLKLWGRRSERLAQMTPGKDGSPYKQSVCQTLMEVKTPQKLQRLESKDFRTPSRTPTRSNNTTPAKQSMQISNTPRKSDLKHPQEHESRGPSGYILWTPQKRILASVPHTPILQTPQKPISASVPRTPVCRTPQKAILSSVPSTPVCQTPNKAILTSVSRTPVYQTPQKAILASVMSTPVYQTPQKPVLASVPTTPILKTPQRSALASVSHTPSPKKYIMKELTVAITRMRECTPEKVLGSNLSSSATPSSALKSFCSEKTTSVCQTPKKSSIALLKPCDSLEFSGAPERLMDSLCSNKDSTKAETACTVPSQISTQMQNVINAGECTDSLSQTSVSSPSIPFTDKSLSPDLKDALSDVTSSKAEGVTIVSEKLDSSSMDSQEATDSFINSSQTEESIDISEARVVSTEASELKMKVLITRKPSGSGVSYLPTTPKCLGNVCSTSTYGLRCTPDRRQREAAARLGTPEIPAKFSTPKSHCKMIPQSIYEVELEMQESGLPKLRFKRTDSNSTIDMDVNKTPKISRKRKGDESPFNEKWCSKHAVRTEPACVSPSCVRTSHYTPGKSGIQTFICQSYTPNRCLSAAASPSQSDAGVPWTPSPKEKLSTDVINSWPRKKKASALCTNLLKCDKIPEYAEEDGGDFELEGVSKLLEKSPVIEQQSKVDGGTFGLRSRKRVFSLVSPTKETENPVKRVCTFNRHEDSSTATHRHQTKEEMEIFSSDQSRSSYLSSSQQSICDDVFNMSDFTPPSKVPKNPLSACGLLTLTQSPLLYKGKTPSSKRKEKIQDVFSDGDSDHGTPTLKRPTNPAAVSDDSPFRKVNPLRSISKTYSRKKLIT
notes: Treslin (Ticrr) of Xenopus laevis, endogenous in egg extract; 220 kDa as printed; no sites are mapped
For B1, the “stoichiometry N” value is 2 molecules of Treslin with 2 molecules of MTBP.
